Key:
[1] = test system: N. meningitidis MC58 pilin (PilE, expression product of pilE, Accession No. AAF40497)
[2] = test system: PilE N60A variant of N. meningitidis MC58 pilin (pPilEN60A)
[3] = test system: PilE N61A variant of N. meningitidis MC58 pilin (pPilEN61A)
[4] = test system: PilE S63A variant of N. meningitidis MC58 pilin (pPilES63A)
[5] = test system: PilE T62A variant of N. meningitidis MC58 pilin (pPilET62A)

How did the “glycosylation of pilin in E. coli CLM24 (western blot, band shift)” value [1] turn out when “PglL oligosaccharyltransferase of N. meningitidis MC58 (Accession No. AAF41024), His10-tagged (pAMF5)” was run?
The value was “an extra band of slower electrophoretic mobility was detected with both a monoclonal anti-pilin antiserum and the C. jejuni glycan-specific R12 antiserum”.

And the “transfer of O7 polysaccharide to PilE (western blot)” value (from here on “transfer of O7 polysaccharide”) [2]?
Its value is “mutation of N60, N61 and T62 do not affect glycosylation”.

And the “transfer of O7 polysaccharide” value [3]?
The value was “mutation of N60, N61 and T62 do not affect glycosylation”.

What about the “transfer of O7 polysaccharide” value [4] of the same substance?
Its value is “mutation S63A completely abolishes transfer of the polysaccharide to PilE”.

What about the “transfer of O7 polysaccharide” value [5] of the same substance?
Its value is “mutation of N60, N61 and T62 do not affect glycosylation”.

From patent publication US9238830
